B1: O60292 454-467 (peptide)
chain: HAQSLSRPLKQTPI
B2: Q99848 277-290 (peptide)
chain: HGRGLKRPGKKGSN
B3: Q9NYQ8 617-630 (peptide)
chain: GVISLKRPFINLTA
B4: Q02833 302-315 (peptide)
chain: ALPPPPRPDRGPPG
B5: O60449 4-17 (peptide)
chain: GWATPRRPAGLLML
B6: O43158 529-542 (peptide)
chain: HGKGFSRPARPANR
B7: P98161 595-608 (peptide)
chain: GTQELRRPAQLRLQ
B8: Q96S08 292-305 (peptide)
chain: HAPRIKRPRLQVVK
B9: Q15142 511-524 (peptide)
chain: GSVELRRPPAHQVM
B10: Q9H7I4 14-27 (peptide)
chain: GTRAPQRPKRESRG
B11: Q96AB7 34-47 (peptide)
chain: GTYQLRRPEDRPAG
B12: Q9Y5K6 406-419 (peptide)
chain: GTVYPKRPEKPVPP
B13: P21917 231-244 (peptide)
chain: HGRAPRRPSGPGPP
B14: O94987 842-855 (peptide)
chain: GWGSPGRPKKKHTG
B15: BAC05127 110-124 (peptide)
chain: GSSSPSRPPGLSSN
B16: O14842 113-126 (peptide)
chain: GYQAFRRPSYSWGV
B17: Q99700 27-40 (peptide)
chain: GWRSLQRPARRSGR
B18: P26022 194-207 (peptide)
chain: GSVHPVRPMRLESF
B19: Q9HCI5 739-752 (peptide)
chain: ALPHFRRPFFEEAA
B20: Q9Y2L9 5-19 (peptide)
chain: HGRLPARPPFYAPA
B21: Q9H7L8 148-161 (peptide)
chain: GTLPPPRPRREGRS
B22: O75134 505-518 (peptide)
chain: GYGLLVRPSRVRRA
B23: Q9BXG4 352-365 (peptide)
chain: GSSALKRPFEDGLG
B24: Q9NVM4 598-611 (peptide)
chain: GTVELRRPGQSHAA
B25: P21675 1363-1376 (peptide)
chain: HSDYLNRPHKSIHR
B26: P01266 150-163 (peptide)
chain: GTRQLGRPKRSPRS
B27: Q9UN36 56-69 (peptide)
chain: GTPKPKRPAILTYH
B28: Q9P025 127-140 (peptide)
chain: ALPLPGRPARGVFY
B29: Q14137 202-215 (peptide)
chain: GWIQPRRPRDPTPS
B30: O43610 251-264 (peptide)
chain: GYDSLRRPGSRSKR
B31: Q9NY27 58-71 (peptide)
chain: GVPVPKRPAEGGGG
B32: Q96LM6 67-80 (peptide)
chain: GYPAFKRPHMTAKD
B33: Q9C004 264-277 (peptide)
chain: GYDRLRRPGSRSKH
B34: Q15427 383-397 (peptide)
chain: GYTGPPRPPPYGYQ
B35: Q9H7M8 395-408 (peptide)
chain: HALHPARPARDHLD
B36: Q9Y4Y7 208-222 (peptide)
chain: GTGSPARPPTPAQV
B37: Q14767 91-104 (peptide)
chain: GWGSPRRPTEAEAR
B38: Q96MH8 48-61 (peptide)
chain: ALPLPRRPSALPPK
B39: Q9Y6X0 438-452 (peptide)
chain: GVSKPRKPPMVMTP
B40: Q9Y5K9 654-668 (peptide)
chain: HDDPPQKPPRSITL
B41: O75928 422-435 (peptide)
chain: GSWSPMRPKKEAMK
B42: P29350 24-37 (peptide)
chain: HGSFLARPSRKNQG

Molecular target: T1, amphyphisin SH3 (AMPH_HUMAN), P49418
T1 chain: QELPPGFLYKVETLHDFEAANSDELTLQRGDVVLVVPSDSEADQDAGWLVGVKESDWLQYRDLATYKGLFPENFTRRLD
Assay: SPOT array

First: B1
Second: B2
The normalised SPOT signal, Boehringer light units (BLU); mean over the file's lines of this peptide of the first is higher: 58.3 for the first, 26 for the second.

Compared with B3, B4 is higher in normalised SPOT signal, Boehringer light units (BLU); mean over the file's lines of this peptide: 16.4 for the first, 847 for the second.

Going from B5 to B6, the normalised SPOT signal, Boehringer light units (BLU); mean over the file's lines of this peptide rises from 48.3 to 3230.

Compared with B7, B8 is lower in normalised SPOT signal, Boehringer light units (BLU); mean over the file's lines of this peptide: 47.4 for the first, 36.2 for the second.

Going from B9 to B10, the normalised SPOT signal, Boehringer light units (BLU); mean over the file's lines of this peptide rises from 55.2 to 11400.

First: B11
Second: B12
The normalised SPOT signal, Boehringer light units (BLU); mean over the file's lines of this peptide of the first is lower: 14.3 for the first, 42.9 for the second.

Going from B13 to B14, the normalised SPOT signal, Boehringer light units (BLU); mean over the file's lines of this peptide rises from 35.4 to 135.

First: B15
Second: B16
The normalised SPOT signal, Boehringer light units (BLU); mean over the file's lines of this peptide of the first is higher: 72.7 for the first, 35 for the second.

Compared with B17, B18 is higher in normalised SPOT signal, Boehringer light units (BLU); mean over the file's lines of this peptide: 2550 for the first, 9890 for the second.

Compared with B19, B20 is lower in normalised SPOT signal, Boehringer light units (BLU); mean over the file's lines of this peptide: 43.2 for the first, 33.8 for the second.

First: B21
Second: B22
The normalised SPOT signal, Boehringer light units (BLU); mean over the file's lines of this peptide of the first is higher: 5470 for the first, 2560 for the second.

First: B23
Second: B24
The normalised SPOT signal, Boehringer light units (BLU); mean over the file's lines of this peptide of the first is lower: 27.5 for the first, 29 for the second.

Going from B25 to B26, the normalised SPOT signal, Boehringer light units (BLU); mean over the file's lines of this peptide rises from 116 to 148.

First: B27
Second: B28
The normalised SPOT signal, Boehringer light units (BLU); mean over the file's lines of this peptide of the first is lower: 33.4 for the first, 602 for the second.

First: B29
Second: B30
The normalised SPOT signal, Boehringer light units (BLU); mean over the file's lines of this peptide of the first is higher: 76.8 for the first, 31.2 for the second.

First: B31
Second: B32
The normalised SPOT signal, Boehringer light units (BLU); mean over the file's lines of this peptide of the first is lower: 17.4 for the first, 31.1 for the second.

Compared with B33, B34 is higher in normalised SPOT signal, Boehringer light units (BLU); mean over the file's lines of this peptide: 30.6 for the first, 61.8 for the second.

Compared with B35, B36 is lower in normalised SPOT signal, Boehringer light units (BLU); mean over the file's lines of this peptide: 4580 for the first, 85.9 for the second.

First: B37
Second: B38
The normalised SPOT signal, Boehringer light units (BLU); mean over the file's lines of this peptide of the first is lower: 23.4 for the first, 151 for the second.

Going from B39 to B40, the normalised SPOT signal, Boehringer light units (BLU); mean over the file's lines of this peptide rises from 58.3 to 8230.

Compared with B41, B42 is higher in normalised SPOT signal, Boehringer light units (BLU); mean over the file's lines of this peptide: 168 for the first, 2390 for the second.

The binders below were run against endophilin SH3 (SH3G2_HUMAN), Q99962 (assay: SPOT array).

First: B1
Second: B2
The normalised SPOT signal, Boehringer light units (BLU); mean over the file's lines of this peptide of the first is higher: 153 for the first, 71.6 for the second.

Compared with B3, B4 is higher in normalised SPOT signal, Boehringer light units (BLU); mean over the file's lines of this peptide: 35.8 for the first, 4520 for the second.

Compared with B5, B6 is lower in normalised SPOT signal, Boehringer light units (BLU); mean over the file's lines of this peptide: 247 for the first, 5.2 for the second.

Compared with B7, B8 is lower in normalised SPOT signal, Boehringer light units (BLU); mean over the file's lines of this peptide: 45.8 for the first, 33.2 for the second.

Going from B9 to B10, the normalised SPOT signal, Boehringer light units (BLU); mean over the file's lines of this peptide rises from 52.2 to 1420.

Compared with B11, B12 is higher in normalised SPOT signal, Boehringer light units (BLU); mean over the file's lines of this peptide: 21.7 for the first, 962 for the second.

Going from B13 to B14, the normalised SPOT signal, Boehringer light units (BLU); mean over the file's lines of this peptide falls from 11100 to 317.

Going from B15 to B16, the normalised SPOT signal, Boehringer light units (BLU); mean over the file's lines of this peptide falls from 318 to 229.

First: B17
Second: B18
The normalised SPOT signal, Boehringer light units (BLU); mean over the file's lines of this peptide of the first is lower: 39.1 for the first, 2470 for the second.

First: B19
Second: B20
The normalised SPOT signal, Boehringer light units (BLU); mean over the file's lines of this peptide of the first is lower: 95.9 for the first, 775 for the second.

Compared with B21, B22 is lower in normalised SPOT signal, Boehringer light units (BLU); mean over the file's lines of this peptide: 3720 for the first, 747 for the second.

Going from B23 to B24, the normalised SPOT signal, Boehringer light units (BLU); mean over the file's lines of this peptide rises from 39.6 to 42.6.

Compared with B25, B26 is higher in normalised SPOT signal, Boehringer light units (BLU); mean over the file's lines of this peptide: 89.2 for the first, 152 for the second.

Compared with B27, B28 is higher in normalised SPOT signal, Boehringer light units (BLU); mean over the file's lines of this peptide: 1130 for the first, 1290 for the second.

Going from B29 to B30, the normalised SPOT signal, Boehringer light units (BLU); mean over the file's lines of this peptide falls from 836 to 141.

Compared with B31, B32 is higher in normalised SPOT signal, Boehringer light units (BLU); mean over the file's lines of this peptide: 88.7 for the first, 97.4 for the second.

Compared with B33, B34 is higher in normalised SPOT signal, Boehringer light units (BLU); mean over the file's lines of this peptide: 142 for the first, 577 for the second.

First: B35
Second: B36
The normalised SPOT signal, Boehringer light units (BLU); mean over the file's lines of this peptide of the first is lower: 1270 for the first, 2420 for the second.

Compared with B37, B38 is higher in normalised SPOT signal, Boehringer light units (BLU); mean over the file's lines of this peptide: 194 for the first, 5800 for the second.

First: B39
Second: B40
The normalised SPOT signal, Boehringer light units (BLU); mean over the file's lines of this peptide of the first is higher: 328 for the first, 133 for the second.

Going from B41 to B42, the normalised SPOT signal, Boehringer light units (BLU); mean over the file's lines of this peptide falls from 1880 to 308.

Reference: PMC314469, “Protein Interaction Networks by Proteome Peptide Scanning” (PLoS Biology, 2004)
